{
  "source": "patent US6262024",
  "biological_target": "N-methyl-D-aspartate (NMDA) receptor (rat)",
  "data": [
    {"substance": "neuron regulatory factor (NRF) from rat", "values": [
      {"measurement": "anterior thalamic neuron survival over controls", "value": 700, "unit": "%"}
    ]}
  ]
}
